Measurements from patent US20220125770A1, “COMBINATION THERAPY OF ALK-POSITIVE NEOPLASIA” (Academisch Medisch Centrum, priority 2019, published 2022).

B1: TRAIL: TNF-related apoptosis-inducing ligand; recombinant soluble human TRAIL (Peprotech; His-tagged for in vivo); also doxycycline-induced transgene in SK-N-AS-TRAIL cells (protein, UniProt P50591 39-281, looked up)
extracellular domain: TNELKQMQDKYSKSGIACFLKEDDSYWDPNDEESMNSPCWQVKWQLRQLVRKMILRTSEETISTVQEKQQNISPLVRERGPQRVAAHITGTRGRSNTLSSPNSKNEKALGRKINSWESSRSGHSFLSNLHLRNGELVIHEKGFYYIYSQTYFRFQEEIKENTKNDKQMVQYIYKYTSYPDPILLMKSARNSCWSKDAEYGLYSIYQGGIFELKENDRIFVSVTNEHLIDMDHEASFFGAFLVG
modifications: extracellular domain His tag
notes: TNF-related apoptosis-inducing ligand; recombinant soluble human TRAIL (Peprotech; His-tagged for in vivo); also doxycycline-induced transgene in SK-N-AS-TRAIL cells

Columns and labels:
[1] = system: MES-type neuroblastoma cells; experiment: Cell viability (MTT) assay, MES-type cells of isogenic cell line pairs; format: cell-based, human
Experimental: […] Seeding densities were optimized for each cell line so that the control, non-treated cells would reach 70-80% confluence by the end of the experiment. […] Metabolic activity was measured by 3-(4,5-dimethylthiazol-2-yl)-2,5-diphenyltetrazolium bromide (MTT) assay, according to the manufacturer's instructions with minor modifications. Sextuple or triplicate measurements were used for each experimental condition. Two-sided t-tests assuming equal variance were used to determine significance. Experiments were repeated at least twice.

[2] = system: ADRN-type neuroblastoma cells; experiment: Cell viability (MTT) assay, ADRN-type cells of isogenic cell line pairs; format: cell-based, human
Experimental: Cells were plated in 96-well plates, one day before the addition of Lorlatinib (HY-12215, MedChemExpress) and/or TRAIL (Peprotech) to the culture medium. Seeding densities were optimized for each cell line so that the control, non-treated cells would reach 70-80% confluence by the end of the experiment. […] Metabolic activity was measured by 3-(4,5-dimethylthiazol-2-yl)-2,5-diphenyltetrazolium bromide (MTT) assay, according to the manufacturer's instructions with minor modifications. Sextuple or triplicate measurements were used for each experimental condition. Two-sided t-tests assuming equal variance were used to determine significance. Experiments were repeated at least twice.

SH-SY5Y xenografts = experiment: SH-SY5Y xenograft tumour growth; format: in vivo, NMRI-Foxn1nu/nu mice; conditions: TRAIL 150 μg/day I.P. 4 weeks; Lorlatinib 5 mg/kg twice a day oral 6 weeks; or both
Experimental: For tumour growth assays, 5×10^6 SH-SY5Y cells were suspended in 200 μl of a 50% Matrigel (BD, 354234) solution in PBS and subcutaneously injected in NMRI-Foxn1nu/nu mice (NKI; Janvier). After tumour outgrowth to around 200-250 mm^3, mice were randomized to control or treatment groups. The control group received 150 μl PBS daily intraperitoneally (I.P.) for 4 weeks (day 1-day 28). The TRAIL group received 150 μg/day through I.P. for 4 weeks (day 1-day 28). The Lorlatinib group received 5 mg/kg twice a day through oral gavage for 6 weeks (day 1-day 42) and 4 weeks (day 29-day 56) of PBS (150 μl/day I.P.). The combination group received Lorlatinib twice a day for 6 weeks (day 1-day 42) and 4 weeks TRAIL (day 29-day 56). Tumour size was measured three times a week. Mice were sacrificed at the humane endpoint (tumor size >1500 mm^3), the tumours were isolated and divided in two parts. One tumour piece was fresh frozen in liquid nitrogen and RNA was isolated using Trizol reagent. The other tumour piece was fixed in 4% (w/v) buffered formaldehyde (Klinipath) and embedded in paraffin for histological analyses. In vivo experiments were conducted at the NKI therapeutical intervention unit after ethical approval from the animal experiments committee of the NKI was obtained (AvD:30100 2015 407 appendix 1; WP8156).

SK-N-AS-TRAIL cells = experiment: Apoptosis of SK-N-AS-TRAIL cells after doxycycline-induced TRAIL expression in vitro; format: cell-based, human; conditions: doxycycline-induced membrane TRAIL expression, 300 ng/ml doxycycline
Experimental: The SK-N-AS cell line with inducible TRAIL expression was generated by cloning human TRAIL from pUNO1-hTRAILa vector (InvivoGen) into the lentiviral pINDUCER (pIND) system (Invitrogen). Expression of the TRAIL transgene was induced by the addition of doxycycline to the culture medium at a final concentration of 300 ng/ml. SH-SY5Y-GFP, IMR-GFP and SH-EP2-GFP were generated by lentiviral (pLenti, Invitrogen) transduction of turboGFP (SHC003, Sigma) and SH-EP2-RFP by lentiviral (pLenti, invitrogen) transduction of near-infrared fluorescent protein NirFP (Evrogen). […]
To determine the effect of doxycycline-induced TRAIL expression on SK-N-AS cells, 150.000 SK-N-AS-TRAIL cells were seeded in triplicate in 6 well/plates in 2 ml medium supplemented with or without 300 ng/ml doxycycline. Cell number was determined using a coulter counter (Beckman) at every 3rd or 4th day and cells were reseeded at similar cell number as at the start until the end of the experiment. The proliferation factor was defined as the ratio of the cells counted and the cells plated.
Sub-G1 fractions were determined after 72 hours treatment with 300 ng/ml doxycycline. […] After 1 hour incubation, DNA content of the nuclei was analysed using a Accuri C6 flow cytometer (BD biosciences). The cell cycle distribution and apoptotic sub G1 fraction was determined using BD Accuri C6 software.

SK-N-AS-TRAIL xenografts = experiment: SK-N-AS-TRAIL xenograft tumour growth; format: in vivo, NMRI-Foxn1nu/nu mice; conditions: TRAIL induced by doxycycline, established tumours 200 mm^3, five-week doxycycline stimulation
Experimental: For the SK-N-AS-TRAIL xenograft experiments, 1×10^6 cells were suspended in 200 μl of a 50% Matrigel solution in PBS and subcutaneously injected in NMRI-Foxn1nu/nu mice. After tumour outgrowth to around 200-250 mm^3, mice were randomized to control or treatment groups. The DOX group was provided drinking water with 200 μg/ml doxycycline. DOX-containing water was refreshed weekly. Control mice received regular drinking water ad lib. Mice were screened regularly to follow tumour formation and were sacrificed before tumour reached 1500 mm^3. All animal experiments were conducted under the institutional guidelines and according to the law and approved in DAG155 by the AMC animal ethics committee.

[3] = system: mixed culture of SH-SY5Y-GFP (ADRN-type) and SH-EP2-RFP (MES-type) cells; experiment: Flow cytometry of mixed cultures of SH-EP2-RFP and SH-SY5Y-GFP cells; format: cell-based, human; conditions: 120 hours, relative to DMSO control
Experimental: GFP and RFP labelled cells were plated at given densities (see Figure description), collected by trypsin treatment, washed twice with FACS buffer and analysed using flow cytometer (BD biosciences) and BD Accuri C6 software.

[4] = system: SK-N-SH (ALK-F1174L) and NBL-W (ALK-R1275L) cell lines; experiment: Cell viability (MTT) assay, cell lines with heterogeneous MES and ADRN composition; format: cell-based, human; conditions: Lorlatinib-only or TRAIL-only (100 ng/ml), 120 hours
Experimental: Seeding densities were optimized for each cell line so that the control, non-treated cells would reach 70-80% confluence by the end of the experiment. […] Metabolic activity was measured by 3-(4,5-dimethylthiazol-2-yl)-2,5-diphenyltetrazolium bromide (MTT) assay, according to the manufacturer's instructions with minor modifications. Sextuple or triplicate measurements were used for each experimental condition. Two-sided t-tests assuming equal variance were used to determine significance. Experiments were repeated at least twice.

SH-EP2 cells (MES-type) = experiment: 3D spheroid co-culture of SK-N-AS-TRAIL cells with SH-EP2-GFP cells; format: cell-based, human; conditions: doxycycline-induced TRAIL expression, 48 hours, 3D model
Experimental: (§1) Spheroid assays were performed as described^28. A suspension of 10000 cells of 3:1 SKNAS-TRAIL:SH-EP2-GFP or 3:1 SKNAS-TRAIL:IMR32-GFP was added in triplicate to 96 well round bottom suspension plates. After 48 hours incubation with 0 or 300 ng/ml doxycycline bright-field and fluorescent images of the 3D cultures were taken.

IMR32 cells (ADRN-type) = experiment: 3D spheroid co-culture of SK-N-AS-TRAIL cells with IMR32-GFP cells; format: cell-based, human; conditions: doxycycline-induced TRAIL expression, 48 hours, 3D model
Experimental: as §1

Molecule	Sensitivity to Alectinib (cell survival) ([1]; isogenic pair with mutant ALK, MES-type cells, 120 hours)	Sensitivity to Alectinib (cell survival) ([2]; isogenic pair with mutant ALK, ADRN-type cells, 120 hours)	Tumour growth response during treatment (SH-SY5Y xenografts)	Apoptosis of SK-N-AS-TRAIL cells (SK-N-AS-TRAIL cells)	Sensitivity to TRAIL (cell viability) ([1]; four isogenic pairs, MES cells, 72 hours of TRAIL treatment)	Sensitivity to TRAIL (cell viability) ([2]; four isogenic pairs, ADRN cells, 72 hours of TRAIL treatment)	Tumour response of established tumours (SK-N-AS-TRAIL xenografts)	Effect on ADRN population (SH-SY5Y-GFP) ([3]; Lorlatinib 5 μM or TRAIL 100 ng/ml)	Effect on MES population (SH-EP2-RFP) ([3]; TRAIL 100 ng/ml)	Cell killing by single-agent treatment [4]	Killing of co-cultured MES-type SH-EP2 cells (SH-EP2 cells (MES-type))	Killing of co-cultured ADRN-type IMR32 cells (IMR32 cells (ADRN-type))
CCc1cc2c(cc1N1CCC(N3CCOCC3)CC1)C(C)(C)c1[nH]c3cc(C#N)ccc3c1C2=O [Alectinib, reference compound]	resistance	preferential killing	–	–	–	–	–	–	–	–	–	–
B1	–	–	did not inhibit tumour growth	apoptosis of a large proportion of the cells	efficiently killed	unaffected	complete regression	reduction of the ADRN population	strongly reduced	partly killed	killed	not
